The assay has as its target T1, EGFR-Fc (#344-ER, R&D Systems) (UniProt P00533 25-645).
T1 construct: Bought reagent; not shown: Fc part of the bought fusion protein is not described
Nature of the assay: SPR (Biacore T100), ME22S captured on human Fab binder, EGFR-Fc injected. The protocol:
In addition, the affinities of the prepared anti-c-Met/anti-EGFR bispecific antibody to the two types of antigens, c-Met and EGFR, were each identified using Biacore T100 (GE). A human Fab binder (GE Healthcare) was immobilized at the surface of a CM5 chip (#BR-1005-30, GE) according to the manufacturer's specifications. […] 10 mM Glycine-HCl (pH 1.5) solution was injected thereto to regenerate the surface. In order to measure affinity, the data obtained from this experiment was fitted using BIAevaluation software (GE Healthcare, Biacore T100 evaluation software).
In general terms: SPR reads the build-up and loss of mass on a sensor chip optically.

B1: anti-c-Met/anti-EGFR bispecific antibody ME22S (bispecific antibody)
heavy: EVQLVESGGGLVQPGGSLRLSCAASGFTFTDYYMSWVRQAPGKGLEWLGFIRNKANGYTTEYSASVKGRFTISRDNSKNTLYLQMNSLRAEDTAVYYCARDNWFAYWGQGTLVTVSSASTKGPSVFPLAPCSRSTSESTAALGCLVKDYFPEPVTVSWNSGALTSGVHTFPAVLQSSGLYSLSSVVTVPSSNFGTQTYTCNVDHKPSNTKVDKTVERKCCVECPPCPAPPVAGPSVFLFPPKPKDTLMISRTPEVTCVVVDVSHEDPEVQFNWYVDGVEVHNAKTKPREEQFNSTFRVVSVLTVVHQDWLNGKEYKCKVSNKGLPAPIEKTISKTKGQPREPQVYTLPPSREEMTKNQVSLTCLVKGFYPSDIAVEWESNGQPENNYKTTPPMLDSDGSFFLYSKLTVDKSRWQQGNVFSCSVMHEALHNHYTQKSLSLSPGKGGGGSGGGGSEVQLLESGGGLVQPGGSLRLSCAASGFTFSNYDMSWVRQAPGKCLEWVSGISHSSGSKYYADSVKGRFTISRDNSKNTLYLQMNSLRAEDTAVYYCAKDATPRPLKPFDYWGQGTLVTVSSGGGGSGGGGSGGGGSQSVLTQPPSASGTPGQRVTISCTGSSSNIGNNDVSWYQQLPGTAPKLLIYDDNKRPSGVPDRFSGSKSGTSASLAISGLRSEDEADYYCGSWDASLNAYVFGCGTKLTVLG
light: DIQMTQSPSSLSASVGDRVTITCKSSQSLLASGNQNNYLAWYQQKPGKAPKMLIIWASTRVSGVPSRFSGSGSGTDFTLTISSLQPEDFATYYCQQSYSRPYTFGQGTKVEIKRTVAAPSVFIFPPSDEQLKSGTASVVCLLNNFYPREAKVQWKVDNALQSGNSQESVTEQDSKDSTYSLSSTLTLSKADYEKHKVYACEVTHQGLSSPVTKSFNRGEC
notes: The modified anti-EGFR scFv is fused through (G4S)2 to the C-terminus of the Fc of L3-1Y-IgG2
With B1, the Kd worked out at 0.49 nM, the off-rate (koff) came to 9.2e-05 s⁻¹ and the kon stood at 190000 M⁻¹ s⁻¹.

For orientation: Kd means the equilibrium constant for the complex coming apart. Read a high Kd as a looser complex. What is called koff is the first-order rate constant of dissociation. The kon is the rate constant with which the complex forms. A higher kon goes with faster complex formation.

These data come from US20150030599A1 (SAMSUNG ELECTRONICS, published 2015).
